Legend:
Details in all cases: Zea mays
[1] = substrate: CC(C)=CCNc1ncnc2[nH]cnc12
[2] = substrate: COc1ccc(CN)cc1
[3] = substrate: COc1ccc(CNc2ncnc3c2ncn3C2CCCCO2)cc1
[4] = substrate: COc1cccc(CN)c1
[5] = substrate: COc1cccc(CNc2ncnc3c2ncn3C2CCCCO2)c1
[6] = substrate: NCc1ccc(O)cc1
[7] = substrate: O[C@@H]1[C@H](O)[C@H](O)CO[C@H]1n1cnc2c(NCc3ccccc3)ncnc21
[8] = substrate: Oc1ccc(CNc2ncnc3c2ncn3C2CCCCO2)cc1
[9] = substrate: Oc1cccc(CNc2ncnc3c2ncn3C2CCCCO2)c1
[10] = substrate: Oc1cccc(CNc2ncnc3nc[nH]c23)c1
[11] = substrate: c1ccc(CNc2ncnc3[nH]cnc23)cc1
[12] = substrate: c1ccc(CNc2ncnc3c2ncn3C2CCCCO2)cc1
[13] = target: 6-(4-hydroxybenzylamino)purine
[14] = substrate: CC(C)=CCNc1ncnc2[nH]cnc12; remark: listed apart in the source
[15] = substrate: Oc1ccc(CNc2ncnc3c2ncn3C2CCCCO2)cc1; remark: listed apart in the source
[16] = substrate: Oc1cccc(CNc2ncnc3c2ncn3C2CCCCO2)c1; remark: listed apart in the source
[17] = substrate: Oc1cccc(CNc2ncnc3nc[nH]c23)c1; remark: listed apart in the source
[18] = substrate: c1ccc(CNc2ncnc3[nH]cnc23)cc1; remark: listed apart in the source
[19] = substrate: c1ccc(CNc2ncnc3c2ncn3C2CCCCO2)cc1; remark: listed apart in the source
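For Km in this document: zea mays CKX1 produced in Pichia pastoris, enzyme activity followed as aldehyde formation detected with the 4-aminophenol method.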

B1: Cytokinin dehydrogenase 1 (Zea mays), Q9T0N8 (protein)
chain: MAVVYYLLLAGLIACSHALAAGTPALGDDRGRPWPASLAALALDGKLRTDSNATAAASTDFGNITSALPAAVLYPSSTGDLVALLSAANSTPGWPYTIAFRGRGHSLMGQAFAPGGVVVNMASLGDAAAPPRINVSADGRYVDAGGEQVWIDVLRASLARGVAPRSWNDYLYLTVGGTLSNAGISGQAFRHGPQISNVLEMDVITGHGEMVTCSKQLNADLFDAVLGGLGQFGVITRARIAVEPAPARARWVRFVYTDFAAFSADQERLTAPRPGGGGASFGPMSYVEGSVFVNQSLATDLANTGFFTDADVARIVALAGERNATTVYSIEATLNYDNATAAAAAVDQELASVLGTLSYVEGFAFQRDVAYAAFLDRVHGEEVALNKLGLWRVPHPWLNMFVPRSRIADFDRGVFKGILQGTDIVGPLIVYPLNKSMWDDGMSAATPSEDVFYAVSLLFSSVAPNDLARLQEQNRRILRFCDLAGIQYKTYLARHTDRSDWVRHFGAAKWNRFVEMKNKYDPKRLLSPGQDIFN
Km [1]: 1.8 µM
kcat [1]: 0.208 s⁻¹
kcat [2]: 0.476 s⁻¹
kcat [3]: 0.256 s⁻¹
kcat [4]: 0.145 s⁻¹
kcat [5]: 0.006 s⁻¹
Km [6]: 5.5 µM
kcat [6]: 0.871 s⁻¹
kcat [7]: 0.218 s⁻¹
Km [8]: 33.8 µM
kcat [8]: 0.195 s⁻¹
Km [9]: 125 µM
kcat [9]: 0.032 s⁻¹
Km [10]: 24.4 µM
kcat [10]: 0.244 s⁻¹
Km [11]: 29.6 µM
kcat [11]: 0.225 s⁻¹
Km [12]: 98.9 µM
kcat [12]: 0.069 s⁻¹
kcat/Km [13]: 0.158
kcat/Km [14]: 0.116
kcat/Km [15]: 5800 M⁻¹ s⁻¹
kcat/Km [16]: 0.0003
kcat/Km [17]: 0.01
kcat/Km [18]: 0.0076
kcat/Km [19]: 0.0007
